Reference: US20230390418A1, “[…] XII ANTIBODIES AND ADMINISTRATION THEREOF” (REGENXBIO INC., priority 2020, published 2023)

Experiments:
[1] = tested on: carrageenan-induced paw edema; assay: Carrageenan paw edema model in mice (paw volume, plethysmometer); assay type: in vivo; settings: C57BL/6 mice, vectors 21 days, Diclofenac 30 minutes prior to carrageenan
From the text: Inflammation models induced by carrageenan are frequently used acute inflammation models. Carrageenan (Cg) is a strong chemical agent that functions in stimulating the release of inflammatory and proinflammatory mediators, including bradykinin, histamine, tachykinins, reactive oxygen, and nitrogen species. Typical signs of inflammation include edema, hyperalgesia, and erythema, which develop immediately following the treatment of carrageenan. This example evaluated the effect of AAV-mediated gene delivery of Lanadelumab on carrageenan-induced paw edema in mice.
In total eighty young adult (8-9 weeks old) male C57BL/6 mice were used for this study. Paw edema was induced by a single subcutaneous (s.c.) injection of 30 μL of 0.7% or 1% carrageenan solution. Test vectors and positive control Diclofenac were administered at 21 days and 30 minutes prior to carrageenan treatment. Blood was collected before vectors injection and at 7 and 21 days post injection from mice in groups 1, 3, 4, 5, 7 and 8. Paw volume was measured using a digital Plethysmometer prior to carrageenan injection, and at 2, 4, 6, 8, 24 and 48 hours after injection. All animals were sacrificed 48 hours after carrageenan injection. Liver and paw specimens were also collected at the necropsy.

[2] = target: activated human plasma kallikrein (Enzyme Research Laboratories) (human) (UniProt P03952); assay: cell-based or functional assay
[3] = target: T1, activated human plasma kallikrein (Homo sapiens, UniProt P03952); assay: In vitro pKal functional assay (fluorogenic PFR-AMC substrate); assay type: biochemical
T1 construct: purchased Enzyme Research Laboratories
Experimental: In order to measure pKal function of lanadelumab derived from mouse serum following AAV-lanadelumab administration, a fluorescence-based kinetic enzymatic functional assay was performed. First, activated human plasma kallikrein (Enzyme Research Laboratories) was diluted in sample dilution buffer (SDB; 1×PBS, 3% BSA, 0.1% Tween-20) to top concentration of 100 nM. This pKal was two-fold serially diluted for a total of 12 concentrations in the dilution series (100 nM-0.05 nM). From each dilution, and in duplicate, […], was placed in one well of a 96-well, opaque flat-bottomed plate along with […], of SDB. […] The samples were immediately run in kinetic mode for AMC fluorescence at excitation/emission wavelengths of 380/460 nm, respectively, for 3 hours using a SpectraMax 3 fluorescent plate reader.
The signal-to-noise ratio for each pKal concentration RFU (last RFU fluorescent value chosen) was calculated by dividing its RFU by background PFR-AMC substrate fluorescence. […] Antibody-pKal mixture was then given PFR-AMC and immediately run in kinetic mode for AMC fluorescence at excitation/emission wavelengths of 380/460 nm, respectively, for 3 hours using a SpectraMax fluorescent plate reader.
In vitro pKal functional assay. […] Total antibody concentration was measured using a Nanodrop spectrophotometer, with OD absorbance=280 nm. […]

T1 sequence (P03952 391-638 limits assumed): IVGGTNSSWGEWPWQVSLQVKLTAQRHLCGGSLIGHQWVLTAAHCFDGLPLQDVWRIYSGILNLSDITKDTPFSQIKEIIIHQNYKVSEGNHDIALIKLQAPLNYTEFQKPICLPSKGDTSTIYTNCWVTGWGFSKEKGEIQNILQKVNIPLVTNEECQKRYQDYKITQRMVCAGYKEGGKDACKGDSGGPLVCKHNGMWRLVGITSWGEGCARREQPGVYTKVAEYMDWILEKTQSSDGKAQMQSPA
T1 sequence (P03952 20-390 limits assumed): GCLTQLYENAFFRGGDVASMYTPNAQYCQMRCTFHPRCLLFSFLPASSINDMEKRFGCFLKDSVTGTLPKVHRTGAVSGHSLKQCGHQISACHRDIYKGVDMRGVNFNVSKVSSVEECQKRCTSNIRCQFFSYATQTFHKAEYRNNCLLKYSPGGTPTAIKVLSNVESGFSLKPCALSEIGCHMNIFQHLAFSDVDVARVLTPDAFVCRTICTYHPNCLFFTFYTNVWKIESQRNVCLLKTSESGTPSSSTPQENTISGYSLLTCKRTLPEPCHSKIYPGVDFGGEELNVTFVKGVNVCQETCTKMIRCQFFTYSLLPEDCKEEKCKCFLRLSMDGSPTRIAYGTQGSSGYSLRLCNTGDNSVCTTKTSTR

Molecule: O=C(O)Cc1ccccc1Nc1c(Cl)cccc1Cl [diclofenac, Diclofenac]
- Paw volume versus vehicle control ([1]; 0.7% carrageenan model): a significant decrease on paw volume was observed only at 4 and 24 hours post injection
- Paw volume versus vehicle control ([1]; 1.0% carrageenan model): significantly decreased the paw volume at 2, 4, 6, 8 and 24 hours post carrageenan injection

Molecule: Lanadelumab (GenScript) (antibody)
- suppression of pKal activity (PFR-AMC fluorogenic substrate, kinetic AMC fluorescence) [2]: 0.1 nM

Molecule: Vectorized lanadelumab derived from mouse serum following AAV-lanadelumab administration (antibody)
- percent reduction in pKal activity (serum diluted 1:25, day 49 post-administration against day -7; PFR-AMC assay) [2]: 50%

B1: lanadelumab: human anti-pKal (anti-kallikrein) IgG antibody; purified (GenScript) or produced in serum via AAV-mediated gene delivery (antibody)
heavy: EVQLLESGGGLVQPGGSLRLSCAASGFTFSHYIMMWVRQAPGKGLEWVSGIYSSGGITVYADSVKGRFTISRDNSKNTLYLQMNSLRAEDTAVYYCAYRRIGVPRRDEFDIWGQGTMVTVSSASTKGPSVFPLAPSSKSTSGGTAALGCLVKDYFPEPVTVSWNSGALTSGVHTFPAVLQSSGLYSLSSVVTVPSSSLGTQTYICNVNHKPSNTKVDKRVEPKSCDKTHTCPPCPAPELLGGPSVFL
light: DIQMTQSPSTLSASVGDRVTITCRASQSISSWLAWYQQKPGKAPKLLIYKASTLESGVPSRFSGSGSGTEFTLTISSLQPDDFATYYCQQYNTYWTFGQGTKVEIKRTVAAPSVFIFPPSDEQLKSGTASVVCLLNNFYPREAKVQWKVDNALQSGNSQESVTEQDSKDSTYSLSSTLTLSKADYEKHKVYACEVTHQGLSSPVTKSFNRGEC
modifications: Lanadelumab Heavy; misc (227)..(230) amino acids 227 to 230 are present or absent; misc (231)..(236) amino acids 231 to 236 are present or absent; misc (237)..(247) amino acids 237 to 247 are present or absent; Lanadelumab Light
notes: human anti-pKal (anti-kallikrein) IgG antibody; purified (GenScript) or produced in serum via AAV-mediated gene delivery
- Suppression of human pKal function by purified total IgG from mouse serum ([3]; IgG purified from day 49 post-administration serum versus day −7): suppressed human pKal function
- Lowest in-well concentration with noticeable suppression of pKal activity ([3]; purified antibody, defined enzyme concentration): 0.1 nM
- Paw volume versus vehicle control ([1]; 1.0% carrageenan model): significantly reduces the severity of inflammation
